The record followed here is PMC4148589.

This assay has as its target CaV1.1 chimera containing the I–II loop of the CaV2.1 α1A subunit (pc-α1SI–IIA). The assay is described as follows: FRAP.

Chain of skeletal muscle β1a subunit, GFP-tagged (pcDNA3-β1a-GFP) (P19517 whole entry): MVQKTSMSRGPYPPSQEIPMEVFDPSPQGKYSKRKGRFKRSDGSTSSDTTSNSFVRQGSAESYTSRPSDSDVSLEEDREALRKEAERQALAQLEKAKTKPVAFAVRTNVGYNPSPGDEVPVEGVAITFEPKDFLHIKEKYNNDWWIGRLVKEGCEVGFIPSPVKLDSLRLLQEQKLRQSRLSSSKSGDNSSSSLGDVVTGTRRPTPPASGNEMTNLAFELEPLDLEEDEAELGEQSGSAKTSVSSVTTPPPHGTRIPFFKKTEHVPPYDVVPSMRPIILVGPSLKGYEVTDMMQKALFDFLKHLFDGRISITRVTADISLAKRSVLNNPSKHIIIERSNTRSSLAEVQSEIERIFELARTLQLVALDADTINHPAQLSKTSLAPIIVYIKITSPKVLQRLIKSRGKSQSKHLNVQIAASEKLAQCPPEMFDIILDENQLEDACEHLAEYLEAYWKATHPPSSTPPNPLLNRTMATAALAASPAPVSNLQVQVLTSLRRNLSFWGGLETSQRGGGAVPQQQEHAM

On to “skeletal muscle β1a subunit, GFP-tagged (pcDNA3-β1a-GFP) (from UniProt P19517 1-524) (natural protein)”, for which the R75 (fractional fluorescence recovery 75 s after bleaching) came to 20.5%.
